± gives the uncertainty stated by the source.

The nature of this data set: abundance fitness (aPCA) (normalised: wild type 0, dead -1); higher = more abundant; growth selection in yeast, the domain comes from the species named. Particulars: Homo sapiens.
“BAG family molecular chaperone regulator 3 D51C, O95817”: the abundance fitness is -0.48 ± 0.22. The value for “BAG family molecular chaperone regulator 3 D51F, O95817” was -0.234 ± 0.48; that for “BAG family molecular chaperone regulator 3 D51G, O95817” was -0.62 ± 0.19. The figure for “BAG family molecular chaperone regulator 3 D51H, O95817” is -0.262 ± 0.42; for “BAG family molecular chaperone regulator 3 D51K, O95817” it is -0.037 ± 0.3. The figure for “BAG family molecular chaperone regulator 3 D51L, O95817” is -0.859 ± 0.2; for “BAG family molecular chaperone regulator 3 D51M, O95817” it is -0.658 ± 0.36; for “BAG family molecular chaperone regulator 3 D51Q, O95817” it is -0.602 ± 0.42. “BAG family molecular chaperone regulator 3 D51R, O95817”: the abundance fitness is -0.568 ± 0.17. “BAG family molecular chaperone regulator 3 D51S, O95817” displayed an abundance fitness of -0.383 ± 0.14. The value for “BAG family molecular chaperone regulator 3 D51T, O95817” was 0.29 ± 0.25; that for “BAG family molecular chaperone regulator 3 D51V, O95817” was -0.666 ± 0.12. The figure for “BAG family molecular chaperone regulator 3 D51W, O95817” is -1.18 ± 0.23. The value for “BAG family molecular chaperone regulator 3 D51Y, O95817” was -0.45 ± 0.4. On to “BAG family molecular chaperone regulator 3 E27A, O95817”, for which the abundance fitness is -0.617 ± 0.18. The figure for “BAG family molecular chaperone regulator 3 E27C, O95817” is -0.789 ± 0.39; for “BAG family molecular chaperone regulator 3 E27D, O95817” it is -0.472 ± 0.35; for “BAG family molecular chaperone regulator 3 E27G, O95817” it is -0.54 ± 0.14. “BAG family molecular chaperone regulator 3 E27K, O95817” displayed an abundance fitness of -0.42 ± 0.23. The figure for “BAG family molecular chaperone regulator 3 E27L, O95817” is -0.912 ± 0.2; for “BAG family molecular chaperone regulator 3 E27M, O95817” it is -0.714 ± 0.19. The value for “BAG family molecular chaperone regulator 3 E27N, O95817” was -0.889 ± 0.22; that for “BAG family molecular chaperone regulator 3 E27P, O95817” was -0.836 ± 0.39. The value for “BAG family molecular chaperone regulator 3 E27Q, O95817” was -0.222 ± 0.3. Substance “BAG family molecular chaperone regulator 3 E27R, O95817” registered an abundance fitness of -0.742 ± 0.15. The value for “BAG family molecular chaperone regulator 3 E27S, O95817” was -0.596 ± 0.14; that for “BAG family molecular chaperone regulator 3 E27T, O95817” was -0.555 ± 0.15; that for “BAG family molecular chaperone regulator 3 E27V, O95817” was -0.96 ± 0.25. “BAG family molecular chaperone regulator 3 E27W, O95817” registered an abundance fitness of -0.988 ± 0.48. The figure for “BAG family molecular chaperone regulator 3 E57A, O95817” is -0.317 ± 0.1; for “BAG family molecular chaperone regulator 3 E57C, O95817” it is -0.564 ± 0.15.

“BAG family molecular chaperone regulator 3 E57F, O95817” returned an abundance fitness of -0.052 ± 0.28. The value for “BAG family molecular chaperone regulator 3 E57G, O95817” was -0.237 ± 0.12; that for “BAG family molecular chaperone regulator 3 E57H, O95817” was -0.326 ± 0.38; that for “BAG family molecular chaperone regulator 3 E57I, O95817” was -0.566 ± 0.36.

Consider “BAG family molecular chaperone regulator 3 E57K, O95817”, for which the abundance fitness was -0.11 ± 0.24. The figure for “BAG family molecular chaperone regulator 3 E57L, O95817” is -0.468 ± 0.094. The figure for “BAG family molecular chaperone regulator 3 E57M, O95817” is -0.186 ± 0.24; for “BAG family molecular chaperone regulator 3 E57N, O95817” it is 0.759 ± 0.22; for “BAG family molecular chaperone regulator 3 E57P, O95817” it is -0.027 ± 0.16.

In the case of “BAG family molecular chaperone regulator 3 E57Q, O95817”, the abundance fitness was -0.46 ± 0.33.

Consider “BAG family molecular chaperone regulator 3 E57R, O95817”, for which the abundance fitness is -0.119 ± 0.081. The figure for “BAG family molecular chaperone regulator 3 E57S, O95817” is -0.001 ± 0.11; for “BAG family molecular chaperone regulator 3 E57T, O95817” it is -0.118 ± 0.21. The value for “BAG family molecular chaperone regulator 3 E57V, O95817” was -0.721 ± 0.21; that for “BAG family molecular chaperone regulator 3 E57W, O95817” was -0.423 ± 0.29. The value for “BAG family molecular chaperone regulator 3 E57Y, O95817” was -0.44 ± 0.13; that for “BAG family molecular chaperone regulator 3 F38A, O95817” was -0.181 ± 0.15; that for “BAG family molecular chaperone regulator 3 F38D, O95817” was -0.57 ± 0.14. “BAG family molecular chaperone regulator 3 F38E, O95817” yielded an abundance fitness of -0.356 ± 0.13. In turn, “BAG family molecular chaperone regulator 3 F38G, O95817” came in with an abundance fitness of -0.503 ± 0.14. The value for “BAG family molecular chaperone regulator 3 F38H, O95817” was -0.014 ± 0.15. “BAG family molecular chaperone regulator 3 F38I, O95817” returned an abundance fitness of -0.692 ± 0.34. The value for “BAG family molecular chaperone regulator 3 F38K, O95817” was -0.31 ± 0.088. The figure for “BAG family molecular chaperone regulator 3 F38L, O95817” is 0.326 ± 0.072; for “BAG family molecular chaperone regulator 3 F38M, O95817” it is 0.197 ± 0.14; for “BAG family molecular chaperone regulator 3 F38N, O95817” it is -0.724 ± 0.46. The value for “BAG family molecular chaperone regulator 3 F38Q, O95817” was 0.571 ± 0.22.

For “BAG family molecular chaperone regulator 3 F38R, O95817”, the abundance fitness was -0.149 ± 0.1. The figure for “BAG family molecular chaperone regulator 3 F38S, O95817” is -0.243 ± 0.069; for “BAG family molecular chaperone regulator 3 F38T, O95817” it is -0.622 ± 0.29. The value for “BAG family molecular chaperone regulator 3 F38V, O95817” was -0.092 ± 0.14; that for “BAG family molecular chaperone regulator 3 F38W, O95817” was -0.665 ± 0.25. The value for “BAG family molecular chaperone regulator 3 F39A, O95817” was -0.89 ± 0.18; that for “BAG family molecular chaperone regulator 3 F39E, O95817” was -0.154 ± 0.085.

“BAG family molecular chaperone regulator 3 F39G, O95817”: the abundance fitness is -0.436 ± 0.067.

Turning to “BAG family molecular chaperone regulator 3 F39H, O95817”, the abundance fitness was -0.615 ± 0.39.

Substance “BAG family molecular chaperone regulator 3 F39L, O95817” had an abundance fitness of -0.528 ± 0.14. The value for “BAG family molecular chaperone regulator 3 F39N, O95817” was -0.442 ± 0.29; that for “BAG family molecular chaperone regulator 3 F39P, O95817” was -0.639 ± 0.19; that for “BAG family molecular chaperone regulator 3 F39Q, O95817” was -0.633 ± 0.5.

For “BAG family molecular chaperone regulator 3 F39R, O95817”, the abundance fitness was -0.618 ± 0.068. Take “BAG family molecular chaperone regulator 3 F39S, O95817”: the abundance fitness is -0.729 ± 0.19. The figure for “BAG family molecular chaperone regulator 3 F39T, O95817” is -0.587 ± 0.26; for “BAG family molecular chaperone regulator 3 F39V, O95817” it is -0.754 ± 0.11. The figure for “BAG family molecular chaperone regulator 3 F39W, O95817” is -0.42 ± 0.19; for “BAG family molecular chaperone regulator 3 F39Y, O95817” it is -0.244 ± 0.24. Substance “BAG family molecular chaperone regulator 3 G15C, O95817” gave an abundance fitness of 0.649 ± 0.079. In the case of “BAG family molecular chaperone regulator 3 G15D, O95817”, the abundance fitness came out at 1.2 ± 0.092.

With “BAG family molecular chaperone regulator 3 G15E, O95817”, the abundance fitness was found to be 1 ± 0.094.

In the case of “BAG family molecular chaperone regulator 3 G15F, O95817”, the abundance fitness came to 0.641 ± 0.083.
